{"source": "paper PMC7498314", "about": "“Microcephaly family protein MCPH1 stabilizes RAD51 filaments” (Nucleic Acids Research, 2020)", "binders": {"B1": {"name": "Strep-tagged mouse DMC1 (natural protein, UniProt Q61880 1-340, looked up)", "chain": "MKEDQVVQEESGFQDDEESLFQDIDLLQKHGINMADIKKLKSVGICTIKGIQMTTRRALCNVKGLSEAKVEKIKEAANKLIEPGFLTAFQYSERRKMVFHITTGSQEFDKLLGGGIESMAITEAFGEFRTGKTQLSHTLCVTAQLPGTGGYSGGKIIFIDTENTFRPDRLRDIADRFNVDHEAVLDNVLYARAYTSEHQMELLDYVAAKFHEEAGIFKLLIIDSIMALFRVDFSGRGELAERQQKLAQMLSRLQKISEEYNVAVFVTNQMTADPGATMTFQADPKKPIGGHILAHASTTRISLRKGRGELRIAKIYDSPEMPENEATFAITAGGIGDAKE", "notes": "mouse DMC1, the meiotic RAD51 homolog; (His)6-tagged mouse DMC1 was used in the Benzonase protection assay; also called meiotic recombinase DMC1"}, "B2": {"name": "Strep-tagged mouse RAD51 (natural protein, UniProt Q08297 1-339, looked up)", "chain": "MAMQMQLEASADTSVEEESFGPQPISRLEQCGINANDVKKLEEAGYHTVEAVAYAPKKELINIKGISEAKADKILTEAAKLVPMGFTTATEFHQRRSEIIQITTGSKELDKLLQGGIETGSITEMFGEFRTGKTQICHTLAVTCQLPIDRGGGEGKAMYIDTEGTFRPERLLAVAERYGLSGSDVLDNVAYARGFNTDHQTQLLYQASAMMVESRYALLIVDSATALYRTDYSGRGELSARQMHLARFLRMLLRLADEFGVAVVITNQVVAQVDGAAMFAADPKKPIGGNIIAHASTTRLYLRKGRGETRICKIYDSPCLPEAEAMFAINADGVGDAKD", "notes": "mouse RAD51 recombinase; (His)6-tagged mouse RAD51 was used in the Benzonase protection and TPM assays; also called RAD51 recombinase"}}, "key": {"Strep-tagged mouse RAD51": {"biological_target": "B2", "assay": "pull-down; (His)6-SUMO-tagged MCPH1 fragments (2 μg) with Strep-tagged RAD51 or DMC1 (2 μg), same procedure (buffer D, Benzonase, Talon resin); SDS-PAGE and western blot with RAD51 or DMC1 antibody", "settings": "both partners purified"}, "Strep-tagged mouse DMC1": {"biological_target": "B1", "assay": "pull-down; (His)6-SUMO-tagged MCPH1 fragments (2 μg) with Strep-tagged RAD51 or DMC1 (2 μg), same procedure (buffer D, Benzonase, Talon resin); SDS-PAGE and western blot with RAD51 or DMC1 antibody", "settings": "both partners purified"}, "MCPH1 (tag-free)": {"biological_target": "T1, MCPH1 (tag-free) (Mus musculus, UniProt Q7TT79 1-822)", "T1 sequence": "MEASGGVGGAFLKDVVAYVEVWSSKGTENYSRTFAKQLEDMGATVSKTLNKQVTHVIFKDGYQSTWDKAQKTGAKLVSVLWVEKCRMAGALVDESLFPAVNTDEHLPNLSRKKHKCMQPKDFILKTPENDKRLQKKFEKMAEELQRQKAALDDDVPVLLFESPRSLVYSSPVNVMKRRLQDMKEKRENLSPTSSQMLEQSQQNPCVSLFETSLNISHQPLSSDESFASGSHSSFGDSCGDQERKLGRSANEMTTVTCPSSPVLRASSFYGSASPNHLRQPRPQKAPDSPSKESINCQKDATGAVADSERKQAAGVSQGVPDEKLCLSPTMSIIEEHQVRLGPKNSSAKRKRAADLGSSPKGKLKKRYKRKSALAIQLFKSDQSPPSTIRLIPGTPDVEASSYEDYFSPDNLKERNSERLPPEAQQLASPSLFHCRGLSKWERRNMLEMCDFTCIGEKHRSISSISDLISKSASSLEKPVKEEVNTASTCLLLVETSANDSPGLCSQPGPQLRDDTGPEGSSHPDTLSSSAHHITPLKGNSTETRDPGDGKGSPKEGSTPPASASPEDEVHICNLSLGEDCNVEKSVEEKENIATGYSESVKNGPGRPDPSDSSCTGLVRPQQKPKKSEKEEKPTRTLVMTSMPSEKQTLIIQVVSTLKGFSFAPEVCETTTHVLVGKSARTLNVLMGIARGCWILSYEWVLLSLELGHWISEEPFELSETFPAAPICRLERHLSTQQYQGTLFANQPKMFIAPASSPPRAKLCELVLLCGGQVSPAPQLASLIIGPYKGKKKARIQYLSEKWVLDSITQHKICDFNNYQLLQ", "assay": "EMSA; 50 mM KCl; EMSA: 35 mM Tris-HCl pH 7.5, 1 mM DTT, 50 mM KCl, 0.1 ug/ul BSA, 37 C, 5 min; DNA 750 nM (oligos) or 6 uM (PhiX174) nucleotides/bp. TPM: 100 mM KCl (150 mM high salt)", "settings": "protein: recombinant, tags: none (His6-MBP removed with PreScission)"}, "[1]": {"biological_target": "T2, (His)6-MBP-tagged mouse MCPH1 (Microcephalin 1) (mouse, UniProt Q7TT79 1-822)", "T2 construct": "mouse MCPH1 (microcephalin 1), wild type, cDNA NM_173189.2; calculated molecular mass of the untagged protein 90,372 Da; A PreScission protease site lies between the (His)6-MBP tag and MCPH1; the uncleaved, tagged protein was used in the pull-downs; Tag-free MCPH1 (tag cleaved) was used in the Benzonase protection and TPM assays; also called (His)6-MBP-MCPH1; wild-type MCPH1; source: Expi293F …", "T2 sequence (looked up)": "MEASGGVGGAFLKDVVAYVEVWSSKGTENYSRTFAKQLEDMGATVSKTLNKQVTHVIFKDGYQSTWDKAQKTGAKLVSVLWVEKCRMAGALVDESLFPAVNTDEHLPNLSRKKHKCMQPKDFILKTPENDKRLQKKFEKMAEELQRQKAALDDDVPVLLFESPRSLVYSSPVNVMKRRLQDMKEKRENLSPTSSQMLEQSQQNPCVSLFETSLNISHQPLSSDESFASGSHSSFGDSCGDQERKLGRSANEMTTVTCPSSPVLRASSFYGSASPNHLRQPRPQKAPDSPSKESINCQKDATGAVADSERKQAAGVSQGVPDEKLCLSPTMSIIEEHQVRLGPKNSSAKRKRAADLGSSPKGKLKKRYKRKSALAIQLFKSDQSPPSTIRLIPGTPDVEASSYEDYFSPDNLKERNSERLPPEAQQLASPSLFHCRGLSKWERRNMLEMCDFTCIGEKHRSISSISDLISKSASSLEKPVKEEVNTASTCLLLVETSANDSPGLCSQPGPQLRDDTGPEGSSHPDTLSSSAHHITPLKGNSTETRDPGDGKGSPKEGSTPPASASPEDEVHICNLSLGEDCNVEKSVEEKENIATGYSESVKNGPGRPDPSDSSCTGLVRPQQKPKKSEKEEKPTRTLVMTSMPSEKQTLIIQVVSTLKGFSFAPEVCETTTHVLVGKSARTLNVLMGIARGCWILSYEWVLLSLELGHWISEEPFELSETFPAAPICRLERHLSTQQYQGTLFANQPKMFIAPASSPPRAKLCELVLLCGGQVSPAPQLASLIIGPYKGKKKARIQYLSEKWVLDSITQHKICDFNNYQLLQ", "assay": "pull-down; (His)6-MBP-MCPH1 (4 μg) incubated with recombinase (1 μg) in 30 μl buffer D (25 mM Tris-HCl pH 7.5, 10% glycerol, 0.01% Igepal, 100 mM KCl, 10 mM imidazole) 30 min at 37°C with Benzonase and 2 mM MgCl2; captured on Talon resin via the (His)6 tag; SDS-PAGE with Coomassie Blue staining", "settings": "both partners purified"}}}
{"binder": "(His)6-SUMO-tagged mouse MCPH1 fragment, amino acids 1-190 (N-terminus, containing BRCT1) (domain or fragment, UniProt Q7TT79 1-190, looked up, mouse MCPH1, residues 1-190, containing BRCT1; also called truncated MCPH1 variant; source: E. coli BL21*(DE3)(pLys), purified (Ni-NTA); not shown: His6, N-terminal, kept; SUMO, N-terminal, kept) MEASGGVGGAFLKDVVAYVEVWSSKGTENYSRTFAKQLEDMGATVSKTLNKQVTHVIFKDGYQSTWDKAQKTGAKLVSVLWVEKCRMAGALVDESLFPAVNTDEHLPNLSRKKHKCMQPKDFILKTPENDKRLQKKFEKMAEELQRQKAALDDDVPVLLFESPRSLVYSSPVNVMKRRLQDMKEKRENLS", "values": [{"measurement": "binding result", "setting": "Strep-tagged mouse RAD51", "value": "binds"}, {"measurement": "binding result", "setting": "Strep-tagged mouse DMC1", "value": "binds"}]}
{"binder": "dsDNA (Oligo 5+9) (dsDNA) DNA 1: ACGCTGCCGAATTCTACCAGTGCCTTGCTAGGACATCTTTGCCCACCTGCAGGTTCACCC DNA 2: GGGTGAACCTGCAGGTGGGCAAAGATGTCCTAGCAAGGCACTGGTAGAATTCGGCAGCGT", "values": [{"measurement": "binding result", "setting": "MCPH1 (tag-free); label: 5'-32P on Oligo 5, blunt", "value": "binds"}]}
{"binder": "3'-overhang DNA (Oligo 5+10) (mixed) DNA 1: ACGCTGCCGAATTCTACCAGTGCCTTGCTAGGACATCTTTGCCCACCTGCAGGTTCACCC DNA 2: AGGCACTGGTAGAATTCGGCAGCGT", "values": [{"measurement": "binding result", "setting": "MCPH1 (tag-free); label: 5'-32P on Oligo 5, 3' overhang 35 nt", "value": "binds"}]}
{"binder": "Holliday junction (Oligo 5+6+7+8) (structured_DNA) DNA 1: ACGCTGCCGAATTCTACCAGTGCCTTGCTAGGACATCTTTGCCCACCTGCAGGTTCACCC DNA 2: GGGTGAACCTGCAGGTGGGCAAAGATGTCCATCTGTTGTAATCGTCAAGCTTTATGCCGT DNA 3: ACGGCATAAAGCTTGACGATTACAACAGATCATGGAGCTGTCTAGAGGATCCGACTATCG DNA 4: CGATAGTCGGATCCTCTAGACAGCTCCATGTAGCAAGGCACTGGTAGAATTCGGCAGCGT", "values": [{"measurement": "binding result", "setting": "MCPH1 (tag-free); label: 5'-32P on Oligo 5, four-way junction 1:2 2:3 3:4 4:1", "value": "binds"}]}
{"binder": "Oligo 3 ssDNA (ssDNA) DNA: GCCGTCGCATGACGCTGCCGAATTCTACCACGCTACTAGGGTGCCTTGCTAGGACATCTTTGCCCACCTGCAGGTTCACCCCGTCCCTGGC", "values": [{"measurement": "binding result", "setting": "MCPH1 (tag-free); label: 5'-32P, single strand", "value": "binds"}]}
{"binder": "D-loop (Oligo 2+3+4) (mixed) DNA 1: GCCGTCGCATGACGCTGCCGAATTCTACCACGCTACTAGGGTGCCTTGCTAGGACATCTTTGCCCACCTGCAGGTTCACCCCGTCCCTGGC DNA 2: GCCAGGGACGGGGTGAACCTGCAGGTGGGCGGCTGCTCATCGTAGGTTAGTATCGACCTATTGGTAGAATTCGGCAGCGTCATGCGACGGC DNA 3: AAGATGTCCTAGCAAGGCACCCTAGTAGC", "values": [{"measurement": "binding result", "setting": "MCPH1 (tag-free); label: 5'-32P on Oligo 3, D-loop, Oligo 2 and 3 pair at both ends, Oligo 4 pairs in the bubble of Oligo 3", "value": "binds"}]}
{"binder": "(His)6-SUMO-tagged mouse MCPH1 fragment, amino acids 287-383 (central region containing the nuclear localization signal) (domain or fragment, UniProt Q7TT79 287-383, looked up, mouse MCPH1, residues 287-383, containing the nuclear localization signal; also called truncated MCPH1 variant; source: E. coli BL21*(DE3)(pLys), purified (Ni-NTA); not shown: His6, N-terminal, kept; SUMO, N-terminal, kept) DSPSKESINCQKDATGAVADSERKQAAGVSQGVPDEKLCLSPTMSIIEEHQVRLGPKNSSAKRKRAADLGSSPKGKLKKRYKRKSALAIQLFKSDQS", "values": [{"measurement": "binding result", "setting": "Strep-tagged mouse RAD51", "value": "binds"}, {"measurement": "binding result", "setting": "Strep-tagged mouse DMC1", "value": "binds"}]}
{"binder": "(His)6-SUMO-tagged mouse MCPH1 fragment, amino acids 384-476 (central region containing a Condensin-II binding region) (domain or fragment, UniProt Q7TT79 384-476, looked up, also called truncated MCPH1 variant; source: E. coli BL21*(DE3)(pLys), purified (Ni-NTA); not shown: His6, N-terminal, kept; SUMO, N-terminal, kept) PPSTIRLIPGTPDVEASSYEDYFSPDNLKERNSERLPPEAQQLASPSLFHCRGLSKWERRNMLEMCDFTCIGEKHRSISSISDLISKSASSLE", "values": [{"measurement": "binding result", "setting": "Strep-tagged mouse RAD51", "value": "binds"}, {"measurement": "binding result", "setting": "Strep-tagged mouse DMC1", "value": "binds"}]}
{"binder": "(His)6-SUMO-tagged mouse MCPH1 fragment, amino acids 628-822 (C-terminus, containing BRCT2 and BRCT3) (domain or fragment, UniProt Q7TT79 628-822, looked up, mouse MCPH1, residues 628-822, containing BRCT2 and BRCT3; also called truncated MCPH1 variant; source: E. coli BL21*(DE3)(pLys), purified (Ni-NTA); not shown: His6, N-terminal, kept; SUMO, N-terminal, kept) EKEEKPTRTLVMTSMPSEKQTLIIQVVSTLKGFSFAPEVCETTTHVLVGKSARTLNVLMGIARGCWILSYEWVLLSLELGHWISEEPFELSETFPAAPICRLERHLSTQQYQGTLFANQPKMFIAPASSPPRAKLCELVLLCGGQVSPAPQLASLIIGPYKGKKKARIQYLSEKWVLDSITQHKICDFNNYQLLQ", "values": [{"measurement": "binding result", "setting": "Strep-tagged mouse RAD51", "value": "binds"}, {"measurement": "binding result", "setting": "Strep-tagged mouse DMC1", "value": "binds"}]}
{"binder": "B1", "values": [{"measurement": "binding result", "setting": "[1]", "value": "binds"}]}
{"binder": "B2", "values": [{"measurement": "binding result", "setting": "[1]", "value": "binds"}]}
